Test results as given in paper PMC11440508, “Dually Labeled Neurotensin NTS1R Ligands for Probing Radiochemical and Fluorescence-Based Binding Assays” (Journal of Medicinal Chemistry, 2024).
Values joined by “and” are separate entries in the source; they are usually repeats but may differ in a detail not shown here. Equal values may be shown once. Read-outs that look alike come from different tables or passages of the source. Each block holds one substance with its values, some of them ahead of it.

Experiments:
[1] = molecular target: neurotensin NT(8-13) 8-13 (Homo sapiens) (UniProt P30990); assay: radioligand competition binding; conditions: cited from earlier work
[2] = molecular target: neurotensin NT(8-13) 8-13 (Homo sapiens) (UniProt P30990); conditions: cited from earlier work
NTS1R (Homo sapiens) [3] = molecular target: NTS1R (Homo sapiens) (UniProt P30989); conditions: cited from earlier work
NTS1R (Homo sapiens) [4] = molecular target: NTS1R (Homo sapiens) (UniProt P30989); assay: radioligand competition binding; conditions: cited from earlier work
[5] = molecular target: human neurotensin receptor type 2 (hNTS2R) in homogenates of HEK293T cells (human) (UniProt O95665); assay: radioligand binding; saturation binding of [^3H]UR-MK300 at homogenates of HEK293T-hNTS2R cells
[6] = molecular target: human neurotensin receptor type 1 (hNTS1R), endogenous in HT-29 colon carcinoma cells (human (endogenous in HT-29)) (UniProt P30989); assay: radioligand binding; saturation binding of [^3H]UR-MK300 at intact HT-29 cells, 23 ± 1 °C
Chain of human neurotensin receptor type 1 (hNTS1R), endogenous in HT-29 colon carcinoma cells (human (endogenous in HT-29)) (P30989 whole entry): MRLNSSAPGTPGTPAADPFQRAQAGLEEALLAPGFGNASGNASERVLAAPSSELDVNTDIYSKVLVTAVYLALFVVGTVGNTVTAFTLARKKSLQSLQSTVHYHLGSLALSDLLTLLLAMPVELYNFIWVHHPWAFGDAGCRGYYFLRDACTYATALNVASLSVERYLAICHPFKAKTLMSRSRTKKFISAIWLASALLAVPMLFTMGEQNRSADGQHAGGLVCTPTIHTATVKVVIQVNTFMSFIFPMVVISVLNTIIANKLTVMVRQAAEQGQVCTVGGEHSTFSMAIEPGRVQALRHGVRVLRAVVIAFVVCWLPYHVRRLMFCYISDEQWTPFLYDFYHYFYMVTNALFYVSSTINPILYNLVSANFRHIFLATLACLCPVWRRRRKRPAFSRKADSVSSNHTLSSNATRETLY

Chain of NTS1R (Homo sapiens) (P30989 whole entry): as above
Chain of NTS1R (P30989 whole entry): as above
Chain of NT(8–13) 8-13 (P30990 whole entry, looked up, tested part not stated): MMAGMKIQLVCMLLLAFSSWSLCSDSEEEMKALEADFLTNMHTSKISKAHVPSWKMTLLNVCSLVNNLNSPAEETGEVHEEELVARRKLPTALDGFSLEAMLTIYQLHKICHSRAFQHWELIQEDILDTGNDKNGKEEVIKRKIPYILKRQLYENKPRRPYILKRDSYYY
Chain of neurotensin NT(8-13) 8-13 (Homo sapiens) (P30990 whole entry, looked up, tested part not stated): as above
Chain of human neurotensin receptor type 2 (hNTS2R) in homogenates of HEK293T cells (human) (O95665 whole entry): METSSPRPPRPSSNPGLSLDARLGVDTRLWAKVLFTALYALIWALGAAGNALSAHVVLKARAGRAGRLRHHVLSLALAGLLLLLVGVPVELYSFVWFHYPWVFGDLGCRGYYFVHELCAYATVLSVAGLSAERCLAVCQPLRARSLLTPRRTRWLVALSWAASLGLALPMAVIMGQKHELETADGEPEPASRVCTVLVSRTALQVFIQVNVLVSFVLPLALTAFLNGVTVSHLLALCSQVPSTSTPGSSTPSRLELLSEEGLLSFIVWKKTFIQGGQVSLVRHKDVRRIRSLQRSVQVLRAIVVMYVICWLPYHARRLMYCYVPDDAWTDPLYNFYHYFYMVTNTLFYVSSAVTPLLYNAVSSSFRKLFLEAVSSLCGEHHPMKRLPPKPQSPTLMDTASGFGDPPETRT

Substance: NTS1R (from UniProt P30989)
Ki [1]: 140 pM | Ki [2]: 1000 pM and 240 pM and 290 pM

Substance: NT(8–13) 8-13 (from UniProt P30990)
Ki (NTS1R (Homo sapiens) [3]): 1000 pM and 240 pM | Ki (NTS1R (Homo sapiens) [4]): 140 pM

Kd [5]: 750 pM | Kd [6]: 410 pM
Substance: [^3H]UR-MK300 (peptide)
